Three molecules from PMC11589570, “Critical assessment of LC3/GABARAP ligands used for degrader development and ligandability of LC3/GABARAP binding pockets” (Nature Communications, 2024) can be followed below.

In this assay the target is 1_(1-117) (human), Q9H0R8. Briefly: FP. To be noted: modification not given.
Chain of 1_(1-117) (human), Q9H0R8 (Q9H0R8 whole entry): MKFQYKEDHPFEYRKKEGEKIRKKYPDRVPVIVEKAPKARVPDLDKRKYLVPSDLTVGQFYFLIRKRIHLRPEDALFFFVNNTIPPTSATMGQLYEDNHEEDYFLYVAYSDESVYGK

Molecule SDNSSGGDDDWTHLSSK [p62-LIR] came in with a Ki of 5.5 µM.

In the case of LNSGVEYYWDQLNETV [AMBRA1-LIR], the Ki amounted to 163 µM.

Molecule AGLNSSWVELPMNSS [NIX-P2-LIR] gave a Ki of 3.7 µM.
